Where a chain is given by its changes, count along the chain named. Names and notes keep the numbering of the source.
Legend:
[1] = molecular target: T1, human neonatal Fc receptor (hFcRn) (human, UniProt P55899 24-297; P61769 21-119, limits assumed); experiment: SPR (Biacore 2000), FcRn immobilised, pH 6.0, antibody 2000-62.5 nM; pH 6.0
T1 construct: Immobilised on the CM5 chip, pH 6.0

[2] = molecular target: T1, human neonatal Fc receptor (hFcRn); experiment: SPR (Biacore 2000), FcRn immobilised, pH 6.0, antibody 200-6.25 nM
[3] = molecular target: T1, human neonatal Fc receptor (hFcRn); experiment: SPR (Biacore 2000), FcRn immobilised, pH 6.0, antibody 2000-62.5 nM
[4] = molecular target: T2, EpCAM (epithelial cell adhesion molecule) on human colorectal cancer cell lines SW480 and LoVo (human, UniProt P16422 24-314); experiment: flow cytometry, 500 nM antibody, Alexa488 anti-human Fc
T2 construct: whole, on cells; also called cell-surface EpCAM
T2 sequence (looked up): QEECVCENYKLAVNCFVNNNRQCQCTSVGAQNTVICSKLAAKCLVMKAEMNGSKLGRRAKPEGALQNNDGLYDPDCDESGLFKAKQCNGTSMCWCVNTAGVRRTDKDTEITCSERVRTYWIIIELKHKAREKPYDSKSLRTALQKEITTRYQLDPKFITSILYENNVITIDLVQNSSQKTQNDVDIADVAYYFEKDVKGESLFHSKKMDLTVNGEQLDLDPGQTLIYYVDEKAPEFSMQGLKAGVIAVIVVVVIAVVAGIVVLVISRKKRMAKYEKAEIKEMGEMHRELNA

[5] = molecular target: T2, EpCAM (epithelial cell adhesion …); experiment: flow cytometry on LoVo cells, 100 nM antibody, Alexa488 anti-human Fc
[6] = molecular target: T3, integrin αvβ3 on integrin αvβ3-expressing K562 cells (UniProt P06756 31-1048; P05106 27-788, limits assumed); experiment: flow cytometry, 500 nM antibody, Alexa488 anti-human Fc
T3 construct: whole, on cells; also called integrin ανβ3

[7] = molecular target: T4, integrin αvβ5 on human colorectal cancer cell lines SW480 and LoVo (human, UniProt P06756 31-1048; P18084 24-799); experiment: as above
T4 construct: whole, on cells; also called integrin ανβ5

B1: epRas13 (RT22 VH, IgG1 N434D, hT4-ep59 GSSG light chain) (antibody)
heavy: not shown
VL: EHLHCLGSLCWPGSSGDIQMTQSPSSLSASVGDRVTITCKSSQSLLNSRDGKNYLAWYQQKPGKAPKLLIYWASTRESGVPSRFSGSGSGTDFTLTISSLQPEDFATYFCQQYWYWMYTFGQGTKVEIKR
[1]
  Kd: 2.7 µM

B2: epRas03 (RT22 VH, IgG1, hT4-ep59 GSSG light chain) (antibody)
heavy: not shown
VL: B1 VL
notes: Differs from epRas03 MG by the linker of the light chain
[2]
  Kd: 0.148 µM

B3: epRas83 (RT22 VH, IgG1 LALA-PG, N434D, hT4-ep59 GSSG light chain) (antibody)
heavy: not shown
VL: B1 VL
[3]
  Kd: 3.57 µM

B4: RT22-ep59 MG (antibody, human IgG1)
heavy: not shown
VL: EHLHCLGSLCWPMGSSSNDIQMTQSPSSLSASVGDRVTITCKSSQSLLNSRDGKNYLAWYQQKPGKAPKLLIYWASTRESGVPSRFSGSGSGTDFTLTISSLQPEDFATYFCQQYWYWMYTFGQGTKVEIKR
notes: also called epRas03 MG
[4]
  binding result: binds

B5: epRas23 MG (antibody, human IgG1)
heavy: not shown
VL: B4 VL
[5]
  binding result: binds

B6: RT22-i38 MG (antibody, IgG1, V domains shown)
VH: EVQLVESGGGLVQPGGSLRLSCAASGFTFSDFSMSWVRQAPGKGLEWVSYISRTSHTTYYADSVKGRFTISRDNSKNTLYLQMNSLRAEDTAVYYCARGFKMDYWGQGTLVTVSS
VL: DLVMTQSPSSLSASVGDRVTITCKSSQSLLNSRTGKTYLAWYQQKPGKAPKLLIYWASTRESGVPSRFSGSGSGTDFTLTISSLQPEDFATYFCQQYWYWMYTFGQGTKVEIKR
notes: Intact IgG1,κ
[6]
  binding result: binds
[7]
  binding result: binds

B7: RT22-i39 MG (antibody, IgG1, V domains shown)
VH: B6 VH
VL: DGARYCRGDCFDGMGSSSNDLVMTQSPSSLSASVGDRVTITCKSSQSLLNSRDGKNYLAWYQQKPGKAPKLLIYWASTRESGVPSRFSGSGSGTDFTLTISSLQPEDFATYFCQQYWYWMYTFGQGTKVEIKR
notes: Intact IgG1,κ
[6]
  binding result: binds
[7]
  binding result: binds

B8: RT22-ep58 MG (antibody, IgG1, V domains shown)
VH: B6 VH
VL: B6 VL with L2I, V3Q
notes: Intact IgG1,κ
[4]
  binding result: binds

Source: patent publication US20200339681A1 (ORUM THERAPEUTICS, published 2020)
